Legend:
HLA-B*58:01 = assay: IEDB peptide-MHC binding, purified MHC/competitive/radioactivity; filed as Kd, often an IC50 or EC50 that approximates it; ≥ and ≤ were set here for values at or beyond the usual limits of such assays
HLA-B*57:01 [1] = assay: as above
HLA-A*03:01 = assay: IEDB peptide-MHC binding, purified MHC/competitive/fluorescence; ≥ and ≤ were set here for values at or beyond the usual limits of such assays
HLA-A*11:01 = assay: as above
HLA-B*15:01 [2] = assay: as above
HLA-A*02:01 = assay: as above
HLA-A*24:02 [3] = assay: as above
HLA-A*24:02 [4] = assay: IEDB peptide-MHC binding, purified MHC/competitive/radioactivity; filed as Kd, often an IC50 or EC50 that approximates it; ≥ and ≤ were set here for values at or beyond the usual limits of such assays; conditions: source organism: Dengue virus 3 Martinique/1243/1999
HLA-B*15:17 = assay: IEDB peptide-MHC binding, purified MHC/direct/fluorescence; filed as Kd, often an IC50 or EC50 that approximates it; ≥ and ≤ were set here for values at or beyond the usual limits of such assays; conditions: source organism: Yellow fever virus
HLA-B*57:01 [5] = assay: as above; conditions: source organism: Yellow fever virus
HLA-A*32:01 = assay: IEDB peptide-MHC binding, purified MHC/competitive/radioactivity; filed as Kd, often an IC50 or EC50 that approximates it; ≥ and ≤ were set here for values at or beyond the usual limits of such assays
HLA-B*15:01 [6] = assay: IEDB peptide-MHC binding, purified MHC/direct/fluorescence; filed as Kd, often an IC50 or EC50 that approximates it; ≥ and ≤ were set here for values at or beyond the usual limits of such assays; conditions: source organism: Giardia lamblia ATCC 50803
HLA-B*51:01 = assay: as above; conditions: source organism: Giardia lamblia ATCC 50803
HLA-B*07:02 = assay: as above; conditions: source organism: Giardia lamblia ATCC 50803
[7] = source organism: Dengue virus 4 Philippines/H241/1956
[8] = source organism: Zaire ebolavirus
[9] = source organism: Vaccinia virus Copenhagen
[10] = source organism: Dengue virus 3 Martinique/1243/1999
[11] = source organism: Dengue virus 2 Jamaica/1409/1983
[12] = source organism: Sudan ebolavirus
[13] = source organism: Dengue virus 3 Singapore/8120/1995

Which Kd (HLA-B*58:01; [7]) does the source give for ESSSNPTIEE here?
The Kd was 9490 nM.

And the Kd (HLA-B*57:01 [1]; [7])?
Its Kd is 2320 nM.

PLARTAKVK was tested. Which IC50 (HLA-A*03:01; [8]) did it give?
Its IC50 is 4150 nM.

And the IC50 (HLA-A*11:01; [8])?
Its IC50 is 48400 nM.

Which results are given for ASPMLYQLL?
IC50 (HLA-B*15:01 [2]; [9]): 37200 nM; IC50 (HLA-A*02:01; [9]): 39600 nM; IC50 (HLA-A*24:02 [3]; [9]): 233 nM

For WMAEIPLQW, which Kd (HLA-A*24:02 [4]) is on record?
Its Kd is 174 nM.

What about the Kd (HLA-B*58:01; [10]) of the same sequence?
Its Kd is 13.8 nM.

For SLTESDMDY, which IC50 (HLA-B*15:01 [2]; [8]) is on record?
The IC50 was 68300 nM.

What about the IC50 (HLA-A*02:01; [8]) of the same sequence?
The IC50 was no less than 140000 nM.

Which Kd (HLA-B*15:17) does the source give for ESWIVDRQW here?
The Kd was 135 nM.

What about the Kd (HLA-B*57:01 [5]) of the same sequence?
The Kd was 19.5 nM.

Which results are given for PATLLVWHTW?
Kd (HLA-B*58:01; [10]): 278 nM; Kd (HLA-B*57:01 [1]; [10]): 1390 nM; Kd (HLA-A*32:01; [10]): 3670 nM

For KLRSNALSL, which Kd (HLA-B*15:01 [6]) is on record?
The Kd was 25 nM.

What about the Kd (HLA-B*51:01) of the same sequence?
Its Kd is no less than 20000 nM.

What about the Kd (HLA-B*07:02) of the same sequence?
Its Kd is 8 nM.

With KASFIEVKSC as the sequence, how does the Kd (HLA-B*58:01; [11]) read?
Its Kd is 370 nM.

And the Kd (HLA-B*57:01 [1]; [11])?
Its Kd is 109 nM.

GILGSLGLR was tested. Which IC50 (HLA-A*02:01; [12]) did it give?
Its IC50 is 3620 nM.

What about the IC50 (HLA-A*03:01; [12]) of the same sequence?
The IC50 was 15200 nM.

And the IC50 (HLA-A*11:01; [12])?
The IC50 was 3840 nM.

Which results are given for SASEAVNDSR?
Kd (HLA-B*58:01; [7]): 40.1 nM; Kd (HLA-B*57:01 [1]; [7]): 1390 nM

Which results are given for FLPNPAFIH?
IC50 (HLA-B*15:01 [2]; source organism: Variola virus): 25500 nM; IC50 (HLA-A*02:01; source organism: Variola virus): 2110 nM; IC50 (HLA-A*24:02 [3]; source organism: Variola virus): 497 nM

For KVMEITAEW, which Kd (HLA-B*58:01; [13]) is on record?
Its Kd is 1.09 nM.

What about the Kd (HLA-B*57:01 [1]; [13]) of the same sequence?
The Kd was 18.1 nM.

What about the Kd (HLA-A*32:01; [13]) of the same sequence?
The Kd was 14.3 nM.
